Experimental data taken from patent US20110311556A1 (LFB BIOTECHNOLOGIES, published 2011).
One block for each binder: values may come before it.

Columns and labels:
CD16 (FcγRIII receptor) = CD16 (FcγRIII receptor) (UniProt P08637 17-254, limits assumed); experiment: cell-based or functional assay
[1] = molecular target: T1, Rhesus D antigen (RhD) on Rhesus D positive red blood cells group O R1R1 (human, UniProt Q02161 2-417); experiment: cytometric determination of anti-D specific activity on red blood cells
T1 construct: whole, on cells
T1 sequence (looked up): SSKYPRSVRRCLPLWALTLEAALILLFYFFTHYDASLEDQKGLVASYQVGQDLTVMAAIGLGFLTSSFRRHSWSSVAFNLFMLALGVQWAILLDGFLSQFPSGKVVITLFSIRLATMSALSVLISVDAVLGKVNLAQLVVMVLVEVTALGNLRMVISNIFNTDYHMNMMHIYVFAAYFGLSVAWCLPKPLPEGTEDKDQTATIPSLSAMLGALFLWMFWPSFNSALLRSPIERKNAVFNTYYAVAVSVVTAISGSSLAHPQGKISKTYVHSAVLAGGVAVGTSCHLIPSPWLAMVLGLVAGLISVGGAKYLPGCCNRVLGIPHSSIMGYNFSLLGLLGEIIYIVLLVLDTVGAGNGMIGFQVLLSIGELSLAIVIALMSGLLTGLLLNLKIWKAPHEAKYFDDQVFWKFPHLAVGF

Sequence of CD16 (FcγRIII receptor) (P08637 17-254 limits assumed): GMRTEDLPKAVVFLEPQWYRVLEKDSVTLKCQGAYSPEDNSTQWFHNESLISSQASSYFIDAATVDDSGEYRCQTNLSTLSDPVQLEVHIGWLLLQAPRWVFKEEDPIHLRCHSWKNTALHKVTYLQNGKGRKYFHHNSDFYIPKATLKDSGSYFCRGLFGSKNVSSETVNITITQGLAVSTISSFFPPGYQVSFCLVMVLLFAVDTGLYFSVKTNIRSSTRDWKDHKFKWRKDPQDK

- ADCC activity: EC50 (antibody concentration producing 50% of maximum activity) (CD16 (FcγRIII receptor)): 20 ng/mL
- binding result [1]: binds
B1: non-mutant (C68) anti-D antibody (sequence of the R297 antibody of clone T125 A2) (antibody, human IgG1, kappa)
heavy: not shown
light: AIRMTQSPSSFSASTGDRVTITCRASQDIRNYVAWYQQKSGKAPKFLIYAASTLQSGVPSRFSGSGSGTDFTLTINSLQSEDFATYYCQQYYNSPPTFGQGTRVEITRTVAAPSVFIFPPSDEQLKSGTASVVCLLNNFYPREAKVQWKVDNALQSGNSQESVTEQDSKDSTYSLSSTLTLSKADYEKHKVYACEVTHQGLSSPVTKSFNRGEC
notes: IgG1 tetramer; also called non-mutant (C68) antibody; T125 anti-D antibody

- ADCC activity: EC50 (antibody concentration producing 50% of maximum activity) (CD16 (FcγRIII receptor)): 21 ng/mL
- binding result [1]: binds
B2: R593 antibody (mutant (F68) anti-D antibody) (antibody, human IgG1, kappa)
heavy: not shown
light: B1 light
notes: Tetrameric IgG1 with kappa light chain, two heavy and two light chains; Phenylalanine at heavy chain position 68 (67 by Kabat); Produced in the YB2/0 line; also called mutant (F68) antibody; mutant F68 antibody
